{
  "source": "paper PMC11827629",
  "origin": "cited, not measured here",
  "data": [
    {"tested_on": "thrombin (as in cited literature)", "experiment": "cited", "conditions": "smFRET: 1x PBS with 2.5 mM PCA, 0.155 U/ul PCD, 1 mM Trolox, 5 nM Cy3-aptamer, 23 +/- 1 C, pH not stated; QCM: PBS, flow 45 +/- 3 ul/min, thrombin 0.06-16.5 nM", "units": {"Kd": "nM"}, "values": [
      {"substance": "HD1 (cited)", "Kd": 7.1},
      {"substance": "NU172 (cited)", "Kd": 3.2},
      {"substance": "RE31 (cited)", "Kd": 1.4}
    ]}
  ]
}
